Laboratory results as given in patent publication US20230304012A1.

Experiments:
[1] = molecular target: full length MuSK (wild type mouse, on primary myotubes) (mouse) (UniProt Q61006); assay: cell-based or functional assay
[2] = molecular target: ΔIg3-MuSK (mouse, on primary myotubes from ΔIg3-MuSK mice) (mouse) (UniProt Q61006); assay: cell-based or functional assay

- Wnt11 transcription (qRT-PCR), fold increase after 25 ng/mL BMP4 for 2 hours in primary myotubes [1]: 5.8 fold
- Wnt11 transcription (qRT-PCR), fold increase after 25 ng/mL BMP4 for 2 hours in primary myotubes [2]: 2.6 fold
Substance: BMP4 (ligand)
